Measured values: the supplement of paper PMC10126150
± gives the standard deviation of the averaged measurements.

Tested on: ATP
Experiment: switch fluorescence ratio, 500 uM ATP over buffer (Cy3 cluster intensity, sum of 5 cycles each) (fold (ratio)); higher = stronger signal-on switching upon ATP binding; sequences stand for … in TCGTCGGCAGCGTCAGATGTGTATAAGAGACAGTTTTTTTTTTTTTTTTTTTTTTTTT…TC
Conditions: aptamer strand: ATP DNA aptamer (quencher-CACCTGGGGGAGTATTGCGGAGGAAGG + anchor), 100 nM annealed; ATP concentration: 500 uM
Summary of the method: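 Switching-strand clusters labelled with Cy3 on a modified Illumina MiSeq flow-cell were annealed to 100 nM quencher-labelled ATP aptamer, imaged in selection buffer, and re-imaged after 15 min with 500 uM ATP at 22 °C. This was done over five cycles with NaOH stripping and re-annealing in between. The fluorescence ratio is summed target-cycle over summed buffer-cycle Cy3 intensity per cluster, averaged per switch-domain sequence, excluding clusters outside 100-1000 RFU.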
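Further: ATP exposure 15 min at 22 °C before imaging.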

In order of falling switch fluorescence ratio:
1. ATCTGACTCC  2.52 ± 0.19
2. TTAGCATATA  2.42 ± 1.9
3. TCTGAGCGAC  1.57 ± 0.14
4. GGGAGGCAAT  1.46 ± 0.38
5. AGACTCCACC  1.398 ± 0.0081
6. ATAGGTTACG  1.21 ± 0.25
7. CGTAATGCTT  1.17 ± 0.032
8. AAAAAGCAGG  1.13 ± 0.14
9. TTCAAGCTGA  1.09 ± 0.069
10. TACTGAGACA  1.074 ± 0.0066
11. TTATTTGGGC  1.06 ± 0.081
12. ATAGGGTACG  1.06 ± 0.022
13. TGCAAGGTTT  1.05 ± 0.1
14. CAAATGGTTT  1.05 ± 0.08
15. AGGGGGGGTG  1.05 ± 0.11
16. AAAATAGCCG  1.04 ± 0.054
17. CGATAAACGG  1.03 ± 0.022
18. TAAGGACATT  1.03 ± 0.015
19. ACGGGTTTTG  1.03 ± 0.024
20. TGGGTTTGGA  1.03 ± 0.049
21. CGAAAATTCG  1.03 ± 0.048
22. GGGTTCCGGG  1.02 ± 0.021
23. AATAAACAGA  1.02 ± 0.017
24. CCAGCTTTGC  1.02 ± 0.057
25. TTTCGTTCTT  1.02 ± 0.03
26. TATATAGGAA  1.018 ± 0.0064
27. TGATTAAAGG  1.02 ± 0.025
28. GCTGGGGTAA  1.02 ± 0.021
29. CTTGACAGGT  1.023 ± 0.0058
30. AGATATAACT  1.021 ± 0.0066
31. TGGTTTGTTA  1.02 ± 0.022
32. GGTATTTAGG  1.02 ± 0.029
33. GATATCGCCG  1.022 ± 0.0034
34. GGATTCAGCA  1.01 ± 0.022
35. TTAGGTTGTT  1.01 ± 0.013
36. CTGCATGACG  1.01 ± 0.047
37. TCAGTTTTGT  1.012 ± 0.0094
38. CGGTGACTTG  1.01 ± 0.017
39. TCAGAATTGG  1.01 ± 0.028
40. GGGCTAGTCG  1.01 ± 0.034
41. GGTGTGGTGG  1.01 ± 0.027
42. GATAGTTAGG  1.01 ± 0.021
43. GGGGCGGGGC  1.01 ± 0.014
44. AGTGGCCGGG  1.01 ± 0.027
45. GAATTGGT  1.01 ± 0.012
46. GGGGCCCACG  1.002 ± 0.006
47. CATACGTGCG  1 ± 0.042
48. ATTTGAGTAT  1.004 ± 0.0093
49. ATATCATCTC  1.002 ± 0.0063
50. GGGGTTTACG  1 ± 0.039
51. CCAGGAGGGA  1.002 ± 0.0041
52. ACAAAGGAGC  1 ± 0.022
53. AATCATAGTT  1 ± 0.014
54. AATTGTGGCT  1 ± 0.025
55. AAGGGATTTT  0.999 ± 0.062
56. TCAATTTCGG  0.99882 ± 0.00079
57. TTGCTCTAAC  0.998 ± 0.022
58. GAGTTTAAGG  0.9978 ± 0.009
59. GCAGTAGCTG  0.998 ± 0.011
60. TCATGGTATG  0.997 ± 0.024
61. AAATGGTAGG  0.996 ± 0.0086
62. TAAAGTTTTG  0.995 ± 0.017
63. TTGCAAGCGG  0.995 ± 0.011
64. AACCGCTTGG  0.995 ± 0.056
65. TTGGGCAGAG  0.993 ± 0.043
66. TAATTTTTGT  0.993 ± 0.026
67. GGGTTGTTTG  0.992 ± 0.036
68. TTCGTATTTT  0.992 ± 0.026
69. GTTGGAATCG  0.991 ± 0.018
70. GTTGTCATGT  0.991 ± 0.017
71. GATTTTTTGG  0.991 ± 0.034
72. TGGTAAAGGG  0.991 ± 0.034
73. TTGTAATTTT  0.991 ± 0.017
74. GGATTAGG  0.99 ± 0.025
75. CCTTGCCGTT  0.99 ± 0.017
76. ATTTATTTAG  0.987 ± 0.022
77. TTCAAGTGTT  0.987 ± 0.029
78. AGTATGACGG  0.986 ± 0.036
79. TTGTCGTCTC  0.986 ± 0.041
80. AGTGGGGCTT  0.985 ± 0.043
81. AGGGTAGTTT  0.985 ± 0.045
82. GGTGTTTATG  0.9841 ± 0.0034
83. GTCGAAAGGT  0.984 ± 0.019
84. AATTAGAGGG  0.984 ± 0.046
85. GGTGCAGCGG  0.982 ± 0.018
86. GGGTGGCCAA  0.981 ± 0.012
87. AATCATGTTG  0.981 ± 0.033
88. GAAGCGAGTG  0.9785 ± 0.0056
89. GAGCTAGTGT  0.9792 ± 0.0081
90. TGGCCTGGGG  0.979 ± 0.025
91. CAAGACACGT  0.977 ± 0.032
92. TAGAATAGTC  0.974 ± 0.01
93. ATGGCTGTTT  0.972 ± 0.0012
94. GCCAAGGGAT  0.9721 ± 0.0082
95. GTGTTCGGTA  0.9704 ± 0.0062
96. CGATGGGTTT  0.969 ± 0.0062
97. GAGTATGTGC  0.9691 ± 0.0066
98. ATGGGGAGGT  0.968 ± 0.025
99. TTCAGATCCG  0.967 ± 0.0076
100. TTGGACATGG  0.963 ± 0.012
